According to the supplement of paper PMC9170038:

system: K4 kissing-loop RNA reporter; assay: apparent KD of K4 kissing-loop reporter; higher = weaker reporter binding; conditions: Eterna round: R107; input ligand: FMN 200 uM
Procedure: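 RNA-MaP round R107: designed RNA switches with theophylline, tryptophan, arginine or FMN aptamers are transcribed on-chip within common flanks. They are titrated with a labelled K4 kissing-loop RNA reporter in RNA-MaP buffer (100 mM Tris pH 7.5, 80 mM KCl, 4 mM MgCl2), without ligand or with the indicated ligand. Median apparent KD per design.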
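Note: bound reporter read as fluorescence of individual clusters on recovered sequencing chips by microscopy, with normalized cluster intensities fitted with a binding model.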

Row | Sequence | apparent KD of K4 kissing-loop reporter [nM]
1 | GCAGUCCGGACGGCCGCCACUAUCCGUAAAGUGAUGUUUUACGAACAAUCGAUUGCAUAUCAGAAUAGGACCGGGUCCGUCGACC [theeternabot_sameState_KL_Trp_B_15] | 228

same assay, conditions: Eterna round: R107; input ligand: arginine 13.2 mM

Row | Sequence | apparent KD of K4 kissing-loop reporter [nM]
2 | ACAGUCGGCUGUGAUACCAGUCGUAUUACAACAUGUUGCAGUGAUGUUGCGAGAUAGGAUGACCCUUGGCAGCACUCAGUACGAC [Same State Theophylline B GF10] | 135
3 | UCUGGAGCAUAUGAUACCAGCAGUGAGAGAGAGGAAGUAUAGUGAUGUUAUAUGAGAGAAUGCCCUUGGCAGCGUGUGUAGUGGG [SSTheophylB.M] | 146
4 | AACUGUCAAGGACAACAUUACUGAAGUGAUACCAGCAUCGAAAGAUGCCCUUGGCAGCACUGACUUGCAGUGAUGUUGCAAGUAA [BrourdMod 7 - Jieux - Exclusion - Theophylline A] | 165
5 | GAUUGUGAUGGAAACAUCGCAAUCUCUGAAGGAGCGCGUGAAAACGCAGGUAGGUCGCAGAACGACAAAGACAGUGAUGUUGUCA [Ex Arginine A K4 5] | 263
6 | AGACGUUUGGGAAGGAGCGGAAUGUAAUACGGAACGCGUGGAGGUGCAGUGAUGUUGCAGAUCCAGGUAGGUCGCCCAAGGGACG [Esenraerve] | 122
7 | GCCGUACGCAUGGAUACCAGCCGACCUGAUGUUAAGCUGGUGCCGUAGUGAUGUUACGAAGGCCCUUGGCAGCCAUGCGUACGGC | 147
8 | AGACUACUGAUAGGAUAUAACAUACUAGCUCGUAUACCAAAGGUAUACGAGCUCCUUCUAGUGAUGUUAGAAGGGUCGGUAGUCA [Omei KL FMN B Exc B v4] | 101
9 | GUGGUUUACGUAGGAUAUCGGUGAUGAGUAAAUGGAGUGAUGUUCCGAGAUUGAAUAUGAGAUGAGCGAGAAGGGCGGUUUAUGC [FMN B Same State; Euporia Solution 3] | 77.3
10 | AGACUACUGACAGGAUAUGGCAUCCUGGUCGUAUACCGAAAGGUAUACGAUUUUCUUCUAGUGAUGUUAGAAGGGUCGGUAGUCA [Omei KL FMN B Exc B v15] | 86.3
11 | ACAUUAGGCACGGCCGCCACUGGAUUAAGAUCUUAAGUAUUAAUUAACAUGAGUGAUGUUCAUGCCAGGACCGGGUGACUACCAU [KL-SSTryp-B11] | 222
12 | AUUCGUUUAUGUGAUACCAGACUUUGCAGUGAUGUUGCUUUAAUUAAAGAUGUUUAGUUUGUCCCUUGGCAGCACUAUUUAUUUA [JR_SSTheophyB_Sub001] | 113
13 | UUAGUCUAGAGAAGGAGCGAGUGAUGUUUGCUAAGCUAUAUAAUAAAAUAUAGCAAAUUUACUCAGGUAGGUCGCUCUAGACAUU [AK3 Exc Arginine B] | 122
14 | CGCAGUGAUGUUGCUAUUAUUCUUGGUUAACGAGGACCGGUACGGCCGCCACUCGAUUUCUGUCUAGUCCAGUGUUUUUUUGAGU [whbob_EX_Tryp_A_t7] | 464
15 | AAUGUACAAGUGAUGUUUGUACUUUCCGAAGGAGCGUCUAAUAAGACAGGUAGGUCGCGGAUACUCUAAAUAAUCAGGUCAUUGA [#06 K4 Arginine A Exclusion] | 89
16 | GGGAGUAGUGCGGCCGCCACUGUGAAAGUAGAAGAAUAUAGUGAUGUUAUAUAGGAACAAAAGAAUAGGACCGGGCAUUAGAUUU [SSTRyptB.X] | 260
17 | CUAUUUCGCGUGGAUACCAGCGGUCGUAAAAUGUCAGUGAUGUUGAAGAGGAAAAGAGCUCGCCCUUGGCAGCCAUUCCGCACUA [theeternabot_sameState_KL_Theo_B_34] | 363
18 | UGUGAUGUGUAGUGUUAUGUUUUGCGGGAUACCAGAGUCUUUUUAUUCCCUUGGCAGCUUGAGUGAUGUUUGAUGCUGUUGUUGU [pwwamullin] | 349
19 | GCAGUCCGGACGGCCGCCACUAUCCGUAAAGUGAUGUUUUACGAACAAUCGAUUGCAUAUCAGAAUAGGACCGGGUCCGUCGACC [theeternabot_sameState_KL_Trp_B_15] | 185

same assay, conditions: Eterna round: R107; input ligand: none

Row | Sequence | apparent KD of K4 kissing-loop reporter [nM]
20 | ACAGUCGGCUGUGAUACCAGUCGUAUUACAACAUGUUGCAGUGAUGUUGCGAGAUAGGAUGACCCUUGGCAGCACUCAGUACGAC [Same State Theophylline B GF10] | 222
21 | UCUGGAGCAUAUGAUACCAGCAGUGAGAGAGAGGAAGUAUAGUGAUGUUAUAUGAGAGAAUGCCCUUGGCAGCGUGUGUAGUGGG [SSTheophylB.M] | 119
22 | AACUGUCAAGGACAACAUUACUGAAGUGAUACCAGCAUCGAAAGAUGCCCUUGGCAGCACUGACUUGCAGUGAUGUUGCAAGUAA [BrourdMod 7 - Jieux - Exclusion - Theophylline A] | 194
23 | GAUUGUGAUGGAAACAUCGCAAUCUCUGAAGGAGCGCGUGAAAACGCAGGUAGGUCGCAGAACGACAAAGACAGUGAUGUUGUCA [Ex Arginine A K4 5] | 289
24 | AGACGUUUGGGAAGGAGCGGAAUGUAAUACGGAACGCGUGGAGGUGCAGUGAUGUUGCAGAUCCAGGUAGGUCGCCCAAGGGACG [Esenraerve] | 99.1
25 | GCCGUACGCAUGGAUACCAGCCGACCUGAUGUUAAGCUGGUGCCGUAGUGAUGUUACGAAGGCCCUUGGCAGCCAUGCGUACGGC | 209
26 | AGACUACUGAUAGGAUAUAACAUACUAGCUCGUAUACCAAAGGUAUACGAGCUCCUUCUAGUGAUGUUAGAAGGGUCGGUAGUCA [Omei KL FMN B Exc B v4] | 106
27 | GUGGUUUACGUAGGAUAUCGGUGAUGAGUAAAUGGAGUGAUGUUCCGAGAUUGAAUAUGAGAUGAGCGAGAAGGGCGGUUUAUGC [FMN B Same State; Euporia Solution 3] | 63.1
28 | AGACUACUGACAGGAUAUGGCAUCCUGGUCGUAUACCGAAAGGUAUACGAUUUUCUUCUAGUGAUGUUAGAAGGGUCGGUAGUCA [Omei KL FMN B Exc B v15] | 97.3
29 | ACAUUAGGCACGGCCGCCACUGGAUUAAGAUCUUAAGUAUUAAUUAACAUGAGUGAUGUUCAUGCCAGGACCGGGUGACUACCAU [KL-SSTryp-B11] | 261
30 | AUUCGUUUAUGUGAUACCAGACUUUGCAGUGAUGUUGCUUUAAUUAAAGAUGUUUAGUUUGUCCCUUGGCAGCACUAUUUAUUUA [JR_SSTheophyB_Sub001] | 68.4
31 | UUAGUCUAGAGAAGGAGCGAGUGAUGUUUGCUAAGCUAUAUAAUAAAAUAUAGCAAAUUUACUCAGGUAGGUCGCUCUAGACAUU [AK3 Exc Arginine B] | 98
32 | CGCAGUGAUGUUGCUAUUAUUCUUGGUUAACGAGGACCGGUACGGCCGCCACUCGAUUUCUGUCUAGUCCAGUGUUUUUUUGAGU [whbob_EX_Tryp_A_t7] | 439
33 | AAUGUACAAGUGAUGUUUGUACUUUCCGAAGGAGCGUCUAAUAAGACAGGUAGGUCGCGGAUACUCUAAAUAAUCAGGUCAUUGA [#06 K4 Arginine A Exclusion] | 79.8
34 | GGGAGUAGUGCGGCCGCCACUGUGAAAGUAGAAGAAUAUAGUGAUGUUAUAUAGGAACAAAAGAAUAGGACCGGGCAUUAGAUUU [SSTRyptB.X] | 304
35 | CUAUUUCGCGUGGAUACCAGCGGUCGUAAAAUGUCAGUGAUGUUGAAGAGGAAAAGAGCUCGCCCUUGGCAGCCAUUCCGCACUA [theeternabot_sameState_KL_Theo_B_34] | 568
36 | UGUGAUGUGUAGUGUUAUGUUUUGCGGGAUACCAGAGUCUUUUUAUUCCCUUGGCAGCUUGAGUGAUGUUUGAUGCUGUUGUUGU [pwwamullin] | 461
